Assay results published in patent US20250152627A1, “COMPOSITIONS AND METHODS FOR ENHANCING IMMUNE CELL FUNCTION USING MODIFIED CELLS WITH GLYCOCALYX EDITING ENZYMES” (Cornell University, priority 2021, published 2025).

Legend:
NK-92 cells = assay: Flow cytometry of mucin levels on NK-92 cells after StcE incubation; type: cell-based; conditions: 100 nM recombinant enzyme
Procedure: FIG. 11. StcE mucinase effectively remove cell-surface mucin on 1E7 clone and NK cell. (A) Representative confocal images of Muc1-GFP expressing 1E7 cells with and without treatment with 100 nM StcE, StcE ΔX409, or StcE-EE Zip; Alexa Fluor 647 conjugated to GFP nanobody is used to probe cell-surface Muc1-GFP constructs. (Scale bar, 10 μm). (B) Quantification of mean fluorescence intensity of Muc1-GFP and cell-surface Muc1-GFP probed with GFP nanobody in 1E7 cells treated with the indicated concentration of StcE mucinase; results are shown for induction of Muc1-GFP at 100 ng/ml and 1000 ng/ml doxycycline. (C) Cytotoxicity of NK-92 cells against 1E7 cells treated with control buffer, 100 nM StcE mucinase, or 5,000 U/mL PNGase F for 1 hour; Muc1-GFP induction is at the indicated doxycycline concentration (1,100, and 1,000 ng/ml); NK cell to target cell ratio is 5:1. (D) Flow cytometry analysis of mucin levels on NK-92 cells following incubation with control buffer or 100 nM recombinant StcE or StcE ΔX409; StcE surface level after incubation probed with anti His-tag antibody and cell-surface mucin level probed with catalytically dead StcE E447D conjugated to Cy5. Statistical significance is given by ns—not significant, *P≤0.05, **P≤0.01, ***P≤0.001, ****P≤0.0001. Results are a representative dataset from 3 independent replicates. […]

1E7 cells = assay: NK cell cytotoxicity assay against 1E7 cells; type: cell-based; conditions: 1E7 target cells; NK cell to target cell ratio 5:1 or 10:1
Procedure: Target MCF10A cells were fluorescently labeled by incubation with 1 M CellTracker Green CMFDA Dye (Invitrogen) in MCF10A growth media for 10 minutes. 3×10^4 labeled target cells were suspended with varying ratios of NK-92 effector cells in 200 μL of growth media of target cell line in absent of IL-2 and cocultured in an ultra-low attachment U-bottom 96-well plate (Corning) for 4 hours at 37° C. in 5% C02. For all StcE-treated NK cell experiment, unless otherwise indicated, NK cells were incubated with 100 nM StcE at 37° C. for 1 hour. Cells were thoroughly washed to remove StcE and coculture with target cells. After 4 hours, propidium iodide (PI; 20 μg/mL, Sigma) was added to each well for 10 minutes and washed with 0.5% BSA PBS. […] NK cell cytotoxicity was evaluated by flow cytometry as previously described^16,81. At least 1×10^4 target cells were analyzed after electronic gating on CellTracker Green. Percent cytotoxicity was calculated as 100×(experimental % dead−spontaneous % dead)/(100−spontaneous % dead), where experimental % dead was the percentage of PI positive target cells in NK cocultures and spontaneous % dead was the percentage of PI positive control target cells cultured in the absence of effector cells.

B1: StcE-ΔX409: StcE with a deleted C-terminal X409 lectin domain; NK cells treated with it: StcE-ΔX409 NK (protein)
chain: ADNNSAIYFNTSQPINDLQGSLAAEVKFAQSQILPAHPKEGDSQPHLTSLRKSLLLVRPVKADDKTPVQVEARDDNNKILGTLTLYPPSSLPDTIYHLDGVPEGGIDFTPHNGTKKIINTVAEVNKLSDASGSSIHSHLTNNALVEIHTANGRWVRDIYLPQGPDLEGKMVRFVSSAGYSSTVFYGDRKVTLSVGNTLLFKYVNGQWFRSGELENNRITYAQHIWSAELPAHWIVPGLNLVIKQGNLSGRLNDIKIGAPGELLLHTIDIGMLTTPRDRFDFAKDKEAHREYFQTIPVSRMIVNNYAPLHLKEVMLPTGELLTDMDPGNGGWHSGTMRQRIGKELVSHGIDNANYGLNSTAGLGENSHPYVVAQLAAHNSRGNYANGIQVHGGSGGGGIVTLDSTLGNEFSHEVGHNYGLGHYVDGFKGSVHRSAENNNSTWGWDGDKKRFIPNFYPSQTNEKSCLNNQCQEPFDGHKFGFDAMAGGSPFSAANRFTMYTPNSSAIIQRFFENKAVFDSRSSTGFSKWNADTQEMEPYEHTIDRAEQITASVNELSESKMAELMAEYAVVKVHMWNGNWTRNIYIPTASADNRGSILTINHEAGYNSYLFINGDEKVVSQGYKKSFVSDGQFWKERDVVDTREARKPEQFGVPVTTLVGYYDPEGTLSSYIYPAMYGAYGFTYSDDSQNLSDNDCQLQVDTKEGQLRFRLANHRANNTVMNKFHINVPTESQPTQATLVCNNKILDTKSLTPAPEGLTYTVN
Question: Which results are given for B1?
Answer: trimming of mucin-domain containing proteins on NK-92 cells (NK-92 cells): trimmed similarly; cytotoxicity of enzyme-equipped or enzyme-treated NK cells compared to unmodified NK-92 cells (1E7 cells): not significantly enhanced
